Legend:
[1] = target: prothrombin (Sigma), a human blood coagulation factor (UniProt P00734)
[2] = tested on: fibrin of the fibrin plate (fibrinogen converted with 40 units of thrombin)
[3] = target: fibrinogen (MP Biomedicals), a human fibrin precursor (UniProt P02671)

Substance: serine protease present in the venom of Bombus ignitus, activated form (Bi-VSP)
- human prothrombin activation by Bi-VSP, SDS-PAGE time course [1]: prothrombin started to convert into an activated form of thrombin 5 min after the reaction
- fibrin plate assay, fibrinolytic activity [2]: white zones for the fibirnolysis were formed according to each different concentration
- human fibrinogen hydrolysis by Bi-VSP, SDS-PAGE time course (Aα chain) [3]: Aα chain was completely hydrolyzed within 5 min after the reaction
- human fibrinogen hydrolysis by Bi-VSP, SDS-PAGE time course (Bβ and γ chains) [3]: Bβ and γ chains were completely hydrolyzed within 60 min

— patent US20110195482
